Results as given in patent US7029861B1, “LPS-response gene compositions and methods” (Board of Regents, The University of Texas System, priority 1998, dated 2006).
Changes are numbered by the printed parent chain. Names and notes keep the numbering of the source. “Also recorded” adds a separate entry of the source.

Columns and labels:
[1] = biological target: intact Tlr4 protein, endogenous in RAW 264.7 macrophages (mouse) (UniProt Q9QUK6); experiment: cell-based or functional assay
[2] = biological target: flag-tagged Tlr4^Lps-d, residues 22-835 (P712H), expressed in RAW 264.7 cells (mouse) (UniProt Q9QUK6); experiment: saturation isotherm of 125I-M2 on transfected RAW 264.7 cells, nonlinear regression
[3] = biological target: flag-tagged Tlr4^Lps-d, residues 22-835 (P712H), expressed in RAW 264.7 cells (mouse) (UniProt Q9QUK6); experiment: saturation isotherm of 125I-M2 (50 ng/ml to 20 ug/ml) on transfected RAW 264.7 cells
[4] = biological target: flag-tagged Tlr4^Lps-n cytoplasmic domain construct, residues 630-835 (mouse) (UniProt Q9QUK6); experiment: equilibrium specific binding of M2 at a fixed concentration to RAW 264.7 clones, mean of 7 clones
[5] = biological target: flag-tagged Tlr4^Lps-d cytoplasmic domain construct, residues 630-835 (P712H) (mouse) (UniProt Q9QUK6); experiment: equilibrium specific binding of M2 at a fixed concentration to RAW 264.7 clones, mean of 8 clones
[6] = biological target: flag-tagged Tlr4 ectodomain construct, residues 22-660 (no cytoplasmic domain) (mouse) (UniProt Q9QUK6); experiment: equilibrium specific binding of M2 at a fixed concentration to RAW 264.7 clones, mean of 9 clones
[7] = biological target: flag-tagged Tlr4^Lps-d, residues 22-835 (P712H), expressed in RAW 264.7 cells (mouse) (UniProt Q9QUK6); experiment: equilibrium specific binding of M2 at a fixed concentration to RAW 264.7 clones, mean of 10 clones
[8] = biological target: flag-tagged Tlr4^Lps-n, residues 22-835, expressed in RAW 264.7 cells (mouse) (UniProt Q9QUK6); experiment: as above
[9] = test system: RAW 264.7 cells; experiment: LPS-induced TNF production (EC50 shift) in RAW 264.7 clones expressing Tlr4 constructs, L-929 cytotoxicity assay; type: cell-based, murine; details: for leftward shift of the LPS EC50 curve (augmentation of the LPS response): over-expression in RAW 264.7, TNF production; for effect on LPS signaling (in words): over-expression of truncated constructs in RAW 264.7 cells; for rightward EC50 shift (inhibition of LPS signaling): membrane-associated cytoplasmic domain constructs lacking the entire ectodomain
Method: FIG. 15C. Composite analysis of the shift in EC50 caused by expression of Tlr4^Lps-n and Tlr4^Lps-d in RAW 264.7 cells. Each point represents an EC50 determination performed on ten independent clones at the stated LPS concentration. For each clone, four replicate assays were performed at each concentration. […] Transfected macrophages were plated in 24 well plates at a density of 5×10^5 cells per well, and covered with 1.0 ml of DMEM supplemented with 10% FBS. LPS was added to each well at the concentration indicated. After 15 hours of incubation the medium was harvested, and TNF concentration was assayed in the standard L-929 cytotoxicity system^36, using cycloheximide at a concentration of 100·g/ml to potentiate killing. After 15 hours of exposure to diluted macrophage medium or to mouse TNF applied at a range of 8 standard concentrations, the number of viable cells was determined by staining with crystal violet. A standard curve relating % cytotoxicity to TNF concentration (not shown) was generated using Prism 3.0, and was based on an assumption of sigmoidicity. Variance among replicate samples was typically beneath 5% of the mean, and departures of individual samples from the sigmoid plot were typically smaller still. Linear estimates of TNF concentration in unknown samples were based on non-linear interpolation from the standard curve (also performed using Prism 3.0). The curves shown were generated assuming sigmoidicity of response with variable slope for each curve, and further assigning a maximum response value of 1760 pg TNF, which yielded an optimal fit for the most responsive curve. Error bars indicate standard deviation among clones at each LPS concentration. Log EC50 values and standard error values are shown in the inset table.
FIG. 15D. Shifts of the log EC50, determined for individual clones. A more conservative approach, in which log EC50 values were determined for individual clones transfected with vector alone, or with the Tlr4^Lps-n or Tlr4^Lps-d constructs. The log EC50 data were then represented as a scatter plot, in which each point represents the log EC50 determination of a single clone (confidence limits not shown for the sake of simplicity), and is derived from 24 separate TNF assays performed on samples stimulated over a 10^4-fold range of LPS concentration (100 pg/ml to 1·g/ml, as well as an unstimulated control). In most instances, two determinations of log EC50 were made independently for each clone. The mean and standard error of each cluster is shown in the inset, together with p values defining the likelihood that the EC50 displacements are attributable to chance. Data were analyzed by means of a one-tailed t test, using Welch's correction for unequal variance.
In order to directly examine the role of Tlr4 as a transducer of the LPS signal in macrophages, the inventors expressed the normal mouse protein—and various mutant forms—in RAW 264.7 macrophages have been expressed (FIG. 14; Table VIII). These cells of murine origin are highly responsive to LPS, and are known to express the Tlr4 mRNA (Poltorak et al, 1998b). Unlike cell lines of non-myeloid origin (i.e., 293 cells or CHO cells), they express all proteins required for the elicitation of a biologically relevant response to LPS (e.g., TNF production). As such, they may be used to determine whether Tlr4 is a limiting factor in the initiation of an LPS signal, and to examine the mechanism by which the Tlr4^Lps-d allele exerts its dominant inhibitory effect on signaling. This was determined by performing more than 3,000 assays of TNF production, induced over an extensive range of LPS concentrations in numerous stable clones, since individual clones show considerable background variability in LPS responses. Moreover, because culture conditions can affect the sensitivity of the TNF assay and production of TNF by LPS-stimulated cells, all transfected and control clones were induced and assayed in parallel. […]

“flag-tagged Tlr4^Lps-d cytoplasmic domain construct, residues 630-835 (P712H) (from UniProt Q9QUK6 630-835) (receptor)” showed a shift of the LPS EC50 for TNF production in RAW 264.7 clones [1] of 39 fold.

For “flag-tagged Tlr4^Lps-n cytoplasmic domain construct, residues 630-835 (from UniProt Q9QUK6 630-835) (receptor)”, the shift of the LPS EC50 for TNF production in RAW 264.7 clones [1] was 4 fold.

Work on “monoclonal antibody M2 (obtained from Sigma)” yielded a binding sites per cell (binding sites per cell) [2] of 28100, a % saturation of the surface receptor at the highest antibody concentration [3] of 56.4% and a Copies/cell [4] of 12000 copies/cell. The Copies/cell [5] was 9900 copies/cell, the Copies/cell [6] was 14000 copies/cell and the Copies/cell [7] was 20000 copies/cell. It also gave a Copies/cell [8] of 21000 copies/cell.

B1: Tlr4^Lps-n: flag-tagged full-length normal mouse Tlr4, residues 22–835, expressed in RAW 264.7 cells (protein)
chain: PGSLNPCIEVVPNITYQCMDQKLSKVPDDIPSSTKNIDLSFNPLKILKSYSFSNFSELQWLDLSRCEIETIEDKAWHGLHHLSNLILTGNPIQSFSPGSFSGLTSLENLVAVETKLASLESFPIGQLITLKKLNVAHNFIHSCKLPAYFSNLTNLVHVDLSYNYIQTITVNDLQFLRENPQVNLSLDMSLNPIDFIQDQAFQGIKLHELTLRGNFNSSNIMKTCLQNLAGLHVHRLILGEFKDERNLEIFEPSIMEGLCDVTIDEFRLTYTNDFSDDIVKFHCLANVSAMSLAGVSIKYLEDVPKHFKWQSLSIIRCQLKQFPTLDLPFLKSLTLTMNKGSISFKKVALPSLSYLDLSRNALSFSGCCSYSDLGTNSLRHLDLSFNGAIIMSANFMGLEELQHLDFQHSTLKRVTEFSAFLSLEKLLYLDISYTNTKIDFDGIFLGLTSLNTLKMAGNSFKDNTLSNVFANTTNLTFLDLSKCQLEQISWGVFDTLHRLQLLNMSHNNLLFLDSSHYNQLYSLSTLDCSFNRIETSKGILQHFPKSLAFFNLTNNSVACICEHQKFLQWVKEQKQFLVNVEQMTCATPVEMNTSLVLDFNNSTCYMYKTIISVSVVSVIVVSTVAFLIYHFYFHLILIAGCKKYSRGESIYDAFVIYSSQNEDWVRNELVKNLEEGVPRFHLCLHYRDFIPGVAIAANIIQEGFHKSRKVIVVVSRHFIQSRWCIFEYEIAQTWQFLSSRSGIIFIVLEKVEKSLLRQQVELYRLLSRNTYLEWEDNPLGRHIFWRRLKNALLDGKASNPEQTAEEEQETATWT
modifications: left off: small tags and cut ends
notes: flag-tagged full-length normal mouse Tlr4, residues 22–835, expressed in RAW 264.7 cells
B1 was tested, and the “leftward shift of the LPS EC50 curve (augmentation of the LPS response)” value ([9]; composite EC50 analysis) was 30 fold and the “leftward shift of the LPS EC50 curve (augmentation of the LPS response)” value ([9]; composite EC50 analysis, listed as Tlr4) was “about 30 fold”.

B2: Tlr4^Lps-d: flag-tagged full-length mouse Tlr4 with P712H mutation, residues 22–835, expressed in RAW 264.7 cells (protein)
chain: B1 chain with P691H
modifications: left off: small tags and cut ends
notes: flag-tagged full-length mouse Tlr4 with P712H mutation, residues 22–835, expressed in RAW 264.7 cells
With B2 the “composite range of responsiveness (mean EC50 of Tlr4^Lps-d transfected clones/mean EC50 of Tlr4^Lps-n transfected clones)” value ([9]; LPS EC50 measured for each individual clone) was 1120 fold, the “difference in the mean response at the EC50 point, Tlr4^Lps-n vs Tlr4^Lps-d over-expression” value ([9]; composite EC50 analysis) was 74,000 fold and the “shift to the right of the LPS EC50 curve (suppression of the LPS response)” value ([9]; composite EC50 analysis, full-length protein in RAW 264.7, TNF production) was 2600 fold.

B3: Ectodomain: membrane-anchored truncated Tlr4, residues 22–660, lacking the entire cytoplasmic domain (protein)
chain: PGSLNPCIEVVPNITYQCMDQKLSKVPDDIPSSTKNIDLSFNPLKILKSYSFSNFSELQWLDLSRCEIETIEDKAWHGLHHLSNLILTGNPIQSFSPGSFSGLTSLENLVAVETKLASLESFPIGQLITLKKLNVAHNFIHSCKLPAYFSNLTNLVHVDLSYNYIQTITVNDLQFLRENPQVNLSLDMSLNPIDFIQDQAFQGIKLHELTLRGNFNSSNIMKTCLQNLAGLHVHRLILGEFKDERNLEIFEPSIMEGLCDVTIDEFRLTYTNDFSDDIVKFHCLANVSAMSLAGVSIKYLEDVPKHFKWQSLSIIRCQLKQFPTLDLPFLKSLTLTMNKGSISFKKVALPSLSYLDLSRNALSFSGCCSYSDLGTNSLRHLDLSFNGAIIMSANFMGLEELQHLDFQHSTLKRVTEFSAFLSLEKLLYLDISYTNTKIDFDGIFLGLTSLNTLKMAGNSFKDNTLSNVFANTTNLTFLDLSKCQLEQISWGVFDTLHRLQLLNMSHNNLLFLDSSHYNQLYSLSTLDCSFNRIETSKGILQHFPKSLAFFNLTNNSVACICEHQKFLQWVKEQKQFLVNVEQMTCATPVEMNTSLVLDFNNSTCYMYKTIISVSVVSVIVVSTVAFLIYHFYFHLILIA
modifications: left off: small tags and cut ends
notes: membrane-anchored truncated Tlr4, residues 22–660, lacking the entire cytoplasmic domain
With B3 the “effect on LPS signaling (in words)” value ([9]; listed as Tlr4 ectodomain) was “inhibited the LPS response only weakly, if at all; also recorded: fails to inhibit LPS signaling” and the “effect on LPS signaling (in words)” value ([9]; listed as truncated version of the Tlr4 protein) was “only a weak inhibitory effect on LPS signaling”.

B4: Tlr4^Lps-d Cyt. Dom.: membrane-associated Tlr4 cytoplasmic domain with P712H, residues 630–835, with flag peptide, lacking the ectodomain (protein)
chain: TIISVSVVSVIVVSTVAFLIYHFYFHLILIAGCKKYSRGESIYDAFVIYSSQNEDWVRNELVKNLEEGVPRFHLCLHYRDFIHGVAIAANIIQEGFHKSRKVIVVVSRHFIQSRWCIFEYEIAQTWQFLSSRSGIIFIVLEKVEKSLLRQQVELYRLLSRNTYLEWEDNPLGRHIFWRRLKNALLDGKASNPEQTAEEEQETATWT
modifications: left off: small tags and cut ends
notes: membrane-associated Tlr4 cytoplasmic domain with P712H, residues 630–835, with flag peptide, lacking the ectodomain
In the case of B4, the “rightward EC50 shift (inhibition of LPS signaling)” value [9] is reported as 39 fold.

B5: Tlr4^Lps-n Cyt. Dom.: membrane-associated Tlr4 cytoplasmic domain, normal sequence, residues 630–835, with flag peptide, lacking the ectodomain (protein)
chain: B4 chain with H83P
modifications: left off: small tags and cut ends
B5 was tested, and the “rightward EC50 shift (inhibition of LPS signaling)” value [9] was 4 fold.
